Experimental data as given in the RNAGym collection of RNA variant scans (doi:10.1073/pnas.2313332121).
Variants at the floor of the assay were thinned out.

B1: TPR 5TU (parent)
chain: GGAUCUUCUCGAUCUAACAAAAAAGACAAAUCUGCCACAAAGCUUGAGAGCAUCUUCGGAUGCAGAGGCGGCAGCCUUCGGUGGCGCGAUAGCGCCAACGUUCUCAACUAUGACACGCAAAACGCGUGCUCCGUUGAAUGGAGUUUAUCAUG

Variants of: B1
Assay: polymerase ribozyme fitness, log enrichment relative to wild type (log ratio); higher = more active; in vitro selection for triplet polymerase activity
In short: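 After PCR construction and transcription, each subunit's mutant library from a heterodimeric triplet polymerase ribozyme was annealed with a biotinylated primer, the partner subunit and triplets. Incubation was frozen, at −7 °C, and extended constructs were gel-excised, bound to streptavidin beads and amplified by RT-PCR, in one selection round done in triplicate. Fitness is the logarithm of a genotype's enrichment divided by that of the wild type, from inverse-variance-weighted replicate averages of Illumina-sequenced inputs and outputs. The base of the logarithm is 2, and genotypes needed ≥10 input reads and ≥1 read per output.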

Variant	polymerase ribozyme fitness (log ratio)
C36U C72U	-0.573
C36A A47C G59U	≤ -4.2
C35G A91C C118G C123A	≤ -4.2
C35G U55G G81A A98G U102A	≤ -4.2
C36U A52U C75G G88C C105A C114G A115G	≤ -4.2
C36A A121U	-3.23
C35G U55G U61A C79G C93G A107G	≤ -4.2
C35G G84A U104G U109G G140U	≤ -4.2
C35G G48U G70A G92C C96G U146A	≤ -4.2
C36G G65A G83A A98C	≤ -4.2
C35U U45A G83C C85G A97G G141C	≤ -4.2
C35U U55G A91G A106G G141A	≤ -4.2
C35U G88A	-4.1
C35U A40G C51U G81C C87A	≤ -4.2
C35U C95U A107C U109A A115U	≤ -4.2
C35G G83C A91C C108U G136U	≤ -4.2
C36U U55A A97G A121G U134G	-3.22
A37C A97G U151A	≤ -4.2
C36A A98U A113U C118U U148A	≤ -4.2
C36U G50C C85A A110C	≤ -4.2
A37C C96G A106G	-0.258
C35U C93A C103G	≤ -4.2
C35U G58C G71A C93G	-3.09
C35G A89C C96G	-4.02

Variant	polymerase ribozyme fitness (log ratio)
C36A U56G G68C A98G C103A A121U	≤ -4.2
C36A A73G C96U A121C C131U	≤ -4.2
A37C	0.064
C36U C54A G65C G67U G68U C95G A110C A113U C116U G143C C149A	≤ -4.2
C35U C95G	-1.22
C35U G46U C96U	-1.23
C35U C43A C95G U101C	≤ -4.2
C36A G92A U101A	≤ -4.2
C35U C95U C96G	-1.52
A37C C57A	0.0979
C36A C75A C87G A106U C149G	≤ -4.2
C35U G86U C95G	-3.9
C36A U82A U90G A98C	≤ -4.2
C36A U45A U61A C87U A97C G126A	≤ -4.2
C35U U44A C54A C87U A110U	≤ -4.2
C36U C93G C103G C129A G141C	≤ -4.2
A37C G58C G65A	-3.6
C36U C87G	≤ -4.2
C35U U61A A66C C69U	≤ -4.2
A37C C96U G100C U102C C118G C131G	≤ -4.2
C35U A52G A60C A121U	-3.29
C36U G94A	-3.52
C36U U55A	-0.574
C35U C75A G86A A107G G140U	≤ -4.2

Variant	polymerase ribozyme fitness (log ratio)
C35G U55G G67A G92U	≤ -4.2
A37C A64U A66G C85A A107G	≤ -4.2
C35U G50C	-3.9
C36A C75U C95A C129G	≤ -4.2
C36A G84U C114A A120U G143U	-4.19
C35U G84C	-1.94
A37C A41G G86C G92U C95U	-3.05
C36U U134G U148A	-4.04
C36U C38U G83A A121U	-1.34
C35U G92A A122G	-3.92
C36U G42A C76U G143A	≤ -4.2
C36A C57U A66C C99A	≤ -4.2
C35U A49G G50A U77G C96U G143C A150G U151A	≤ -4.2
C36U C51G U55A G67A C93U	≤ -4.2
C36U A64C G136A U145C A147C	≤ -4.2
C36A U56G C85U C93U G94C	≤ -4.2
C36U G59C C131U	-0.515
A37C A47U G58A U61G A91G A107C A113G A138U	≤ -4.2
C35U A49G A97G A119C	-2.09
C36A G48U C54G C57A C72A A91C	≤ -4.2
A37C C38U U145C	0.0837
C36A C93U G100U	≤ -4.2
C35U A73U G88U C108G	≤ -4.2
A37C C96G U101G A150C U151A	≤ -4.2

Variant	polymerase ribozyme fitness (log ratio)
C35U U44A A49C G74U G80A U109G A121G	≤ -4.2
C35U A52C C123U	-1.31
C36G C99G C132U U146C	-4.06
C35G A115G	-3.92
C36U A41G C95A A122G	-0.35
C36A U56G G141U	≤ -4.2
C35U C54G C57G C69U U82A A91U G92A A113G	≤ -4.2
C36U G46U G86U C105A G124U	-3.12
A37C A52C G84A	-3.24
A37C A49G C87U A115C	-3.32
A37C C75G G80A C149G	≤ -4.2
C35G G83A A89C A142U	≤ -4.2
C35U G71U	-3.53
C36A A98U A107U C131A U146G	≤ -4.2
C36G C95U	-3.45
C35U G117U	0.973
C35U A52C G81A G86U C95A	≤ -4.2
C35U G46C C72U G74U C96U A107G	≤ -4.2
C36U G141U A142C	≤ -4.2
A37C A47C	-1.24
C35U C93G G141A	-3.56
A37C G70C C87U U127C	≤ -4.2
A37C A41C U53G G59A G84A C103A U145A	≤ -4.2
C35G C54A U56A C79G C99U G126U G143U	≤ -4.2

Variant	polymerase ribozyme fitness (log ratio)
A37C C43U A73C U77C C93U C116A U135G G136U	≤ -4.2
C36G G62C G84U	≤ -4.2
C36A U55A A64U C96A C118G	≤ -4.2
C35U C51U G67A G92A C131G G133A U145G	≤ -4.2
C36A A52C C85G A120G A122U U148A	-3.85
C35G C51U C85U U139G A142U	≤ -4.2
A37C A49G C93U	-2.86
C35G G86A A120C C125U G143C	≤ -4.2
C35U C43A G58U C75G C87G A121U C123U G133A	≤ -4.2
A37C G62U G86U G100C A107G	≤ -4.2
C36U C38A A91U C103A C116A	≤ -4.2
C35G C57U C85G U151A	≤ -4.2
C36G A97G	-3.56
C35U U56A U61A C63U A64G	≤ -4.2
C36U C54U C87U C96G U146G G152A	≤ -4.2
C36U A52G C69U C85U U109G C118A	-3.73
C36A U78C G80U C149U	≤ -4.2
A37C A49C C54A U78G C93U G124A	≤ -4.2
C35G C69A C76A C118G U127C	≤ -4.2
C36A U56A C57A A122G U127C	≤ -4.2
C36U C54G A66C G84U C95A U101G	≤ -4.2
C36A G59A U144G	-3.49
C36G U56A G94U A97C A120U C125U	≤ -4.2
C36U G58A C87A C131U G143A	≤ -4.2

Variant	polymerase ribozyme fitness (log ratio)
C35U G124U	-1.25
C36U C95G C108A	-3.89
C36A C79U	≤ -4.2
A37C A60C C85U G126C U146C	-2.23
C36U G59C C95A	-1.64
C36U A142G	-2.16
A37C G70A C85A G92A C93A	≤ -4.2
C35G C51G U56G G70A C76G C85G G133U	≤ -4.2
C35U C51U C85A	-3.1
C35U A47G C99G G152A	-3.48
C36A C75U G83A A89C C99G C105U C123A C125A	≤ -4.2
C35G G59A C85A A106G G126U	≤ -4.2
C36U C87U G126A	-2.05
C35G G42A U130G C131A	-4.12
C35U G50U U56A G68A C85U A137C	≤ -4.2
C36A G46A C96U U148A	≤ -4.2
C35U C149U	-1.57
A37C C95U C103G C118G	≤ -4.2
A37C A60C C69U C85A U146G	-3.76
C35G U78G C99A	≤ -4.2
C35G G84A C93G U101G	≤ -4.2
C36U C85U G133A U135C	-4.18
C35U G50U G59C A60U C85A G94C G141A	≤ -4.2
C36U C54A C95G C108U U109C C116U	≤ -4.2

Variant	polymerase ribozyme fitness (log ratio)
C35U G88A A115C A119G	-3.86
C35G C105U C129A A150C	-4.14
C36G U55G A73U C108U C118A G133U	-4.17
C36U A52G U61A C95A A122U U144A	≤ -4.2
A37C G71U G86A A106U C132G U145G	≤ -4.2
C36A A66C G81A A91C C93U	≤ -4.2
C36U G50U C54U C99U	-4.14
C35U C75G U127C	≤ -4.2
A37C C103G	-3.6
C36U G71A G94A	≤ -4.2
C35U A52C U55A C93U C149A	≤ -4.2
C35U G58A A60C C93G C96U C105U C116U	≤ -4.2
C36A C85U	-3.7
C35U G94A C108A A150U	≤ -4.2
A37C A49C C57G C75U A137U G141C	≤ -4.2
C36U U77G A98U U134A	≤ -4.2
C36A C95U	-3.7
C35U C85U	-0.375
C35U C85A	-1.42
A37C C43U G84A C114A U130G U151G	≤ -4.2
C35U A47C G80U C87U	-3.9
C35U A91G	-2.83
C36A G46C C79U G88U U151A	≤ -4.2
